B1: Azoarcus group I ribozyme (parent)
chain: GUGCCUUGCGCCGGGAAACCACGCAAGGGAUGGUGUCAAAUUCGGCGAAACCUAAGCGCCCGCCCGGGCGUAUGGCAACGCCGAGCCAAGCUUCGGCGCCUGCGCCGAUGAAGGUGUAGAGACUAGACGGCACCCACCUAAGGCAAACGCUAUGGUGAAGGCAUAGUCCAGGGAGUGGCGAAAGUCACACAAACCGG

Variants of: B1
Assay: reverse-splicing fitness (ratio to wild type); higher = more active; in vitro selection; Mg2+ level not given
Summary of the method: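 An in vitro group I ribozyme library with randomized positions was T7-transcribed and gel-purified. In triplicate, 10 pmol RNA in EPPS pH 7.5 was reacted with 50 pmoles of a 30-nt RNA substrate for 1 h at 37 °C across several added MgCl2 levels (1–48 mM), then stopped with EDTA. Products were reverse transcribed from a substrate-complementary primer, PCR-amplified and sequenced (HiSeq 4000). Fitness is a variant's read proportion after selection over that before, normalised to wild type.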
With C82A A145G the reverse-splicing fitness was 0.631. With C82A A145C the reverse-splicing fitness was 0.586. C82A A120U A145C C150A C169U showed a reverse-splicing fitness of 0.00225. Variant C82A A120U A145C U176A has a reverse-splicing fitness of 0.0307. Variant C82A A120U A145C U176C has a reverse-splicing fitness of 0.0456. Variant C82A A120U A145C U176G has a reverse-splicing fitness of 0.00979. C82A A120U C150A U176C showed a reverse-splicing fitness of 0.00899. For C82A A120U C150A U176G, the reverse-splicing fitness was 0.00257. Variant C82A A120U C150A U176A has a reverse-splicing fitness of 0.00729. Work on C82A A120U A145G C150A C169U U176C yielded a reverse-splicing fitness of 0.00385. C82A A120U A145G C150A C169U U176G gave a reverse-splicing fitness of 0.003. C82A A120U A145G C150A C169U U176A showed a reverse-splicing fitness of 0.0044. For C82A A145C C150A C169A U176C, the reverse-splicing fitness was 0.00566. C82A A145C C150A C169A U176G showed a reverse-splicing fitness of 0.00593. With C82A A145C C150A C169A U176A the reverse-splicing fitness was 0.0113. For C82A A120U C150U C169G U176C, the reverse-splicing fitness was 0.00363. With C82A A120U C150U C169G U176G the reverse-splicing fitness was 0.00165. With C82A A120U C150U C169G U176A the reverse-splicing fitness was 0.00534. C82A A120U C150G C169U U176A showed a reverse-splicing fitness of 0.00325. C82A A120U C150G C169U U176C gave a reverse-splicing fitness of 0.00369. For C82A A120U C150G C169U U176G, the reverse-splicing fitness was 0.00296. For C82A A120U U176A, the reverse-splicing fitness was 0.0313. For C82A A120U U176G, the reverse-splicing fitness was 0.0095. In the case of C82A A120U U176C, the reverse-splicing fitness is reported as 0.0627. With C82A A145C C150U C169A U176G the reverse-splicing fitness was 0.00598. For C82A A145C C150U C169A U176A, the reverse-splicing fitness was 0.0106. Variant C82A A145C C150U C169A U176C has a reverse-splicing fitness of 0.00606. For C82A A120U A145C C169U, the reverse-splicing fitness was 0.00406. Variant C82A A120U A145C C169G has a reverse-splicing fitness of 0.0041. C82A A120U A145C C169A showed a reverse-splicing fitness of 0.00194. For C82A A120U A145C C150G C169U U176C, the reverse-splicing fitness was 0.00254. C82A A120U A145C C150G C169U U176A gave a reverse-splicing fitness of 0.00283. With C82A A120U A145C C150G C169U U176G the reverse-splicing fitness was 0.00175. C82A A120U A145U C169A U176G showed a reverse-splicing fitness of 0.00177. With C82A A120U A145U C169A U176A the reverse-splicing fitness was 0.00216. C82A A120U A145U C169A U176C showed a reverse-splicing fitness of 0.00182. C82A A120U A145U C150G C169A U176A gave a reverse-splicing fitness of 0.00324. Work on C82A A120U A145U C150G C169A U176G yielded a reverse-splicing fitness of 0.00201. C82A A120U A145U C150G C169A U176C showed a reverse-splicing fitness of 0.00214. With C82A A120U A145U C150A C169G U176C the reverse-splicing fitness was 0.00266. Work on C82A A120U A145U C150A C169G U176G yielded a reverse-splicing fitness of 0.00136. For C82A A120U A145U C150A C169G U176A, the reverse-splicing fitness was 0.00237. For C82A A120U C169G U176G, the reverse-splicing fitness was 0.00153. Variant C82A A120U C169G U176A has a reverse-splicing fitness of 0.00261. Variant C82A A120U C169G U176C has a reverse-splicing fitness of 0.00323. With C82A A120U C150G C169G the reverse-splicing fitness was 0.00634. With C82A A120U C150G C169A the reverse-splicing fitness was 0.00708. For C82A A120U C150G C169U, the reverse-splicing fitness was 0.00543. With C82A A120U C150U C169U U176C the reverse-splicing fitness was 0.00368. Variant C82A A120U C150U C169U U176G has a reverse-splicing fitness of 0.00199. With C82A A120U C150U C169U U176A the reverse-splicing fitness was 0.00458. In the case of C82A A120U A145U C150G C169G U176G, the reverse-splicing fitness is reported as 0.00188. For C82A A120U A145U C150G C169G U176C, the reverse-splicing fitness was 0.00221. In the case of C82A A120U A145U C150G C169G U176A, the reverse-splicing fitness is reported as 0.00253. In the case of C82A A145G C150A U176A, the reverse-splicing fitness is reported as 0.0679. Work on C82A A145G C150A U176G yielded a reverse-splicing fitness of 0.0222. C82A A145G C150A U176C gave a reverse-splicing fitness of 0.0855. Work on C82A A120U A145U C150A U176C yielded a reverse-splicing fitness of 0.0092. C82A A120U A145U C150A U176G gave a reverse-splicing fitness of 0.00276. In the case of C82A A120U A145U C150A U176A, the reverse-splicing fitness is reported as 0.00611. C82A A120U C169U U176G gave a reverse-splicing fitness of 0.00156. C82A A120U C169U U176A showed a reverse-splicing fitness of 0.00359. C82A A120U C169U U176C gave a reverse-splicing fitness of 0.00453. C82A A120U C169A showed a reverse-splicing fitness of 0.00277. Variant C82A A120U C169U has a reverse-splicing fitness of 0.00613. C82A A120U C169G showed a reverse-splicing fitness of 0.00529. C82A A120U C150G C169G U176G gave a reverse-splicing fitness of 0.00232. In the case of C82A A120U C150G C169G U176C, the reverse-splicing fitness is reported as 0.00251. C82A A120U C150G C169G U176A showed a reverse-splicing fitness of 0.00506. In the case of C82A A120U A145G C150U C169U U176G, the reverse-splicing fitness is reported as 0.00226. For C82A A120U A145G C150U C169U U176C, the reverse-splicing fitness was 0.00493. In the case of C82A A120U A145G C150U C169U U176A, the reverse-splicing fitness is reported as 0.00414. C82A A120U C150A C169U U176A gave a reverse-splicing fitness of 0.00391. Work on C82A A120U C150A C169U U176C yielded a reverse-splicing fitness of 0.00414. In the case of C82A A120U C150A C169U U176G, the reverse-splicing fitness is reported as 0.00215. C82A A145C C150A C169G U176G gave a reverse-splicing fitness of 0.00671. C82A A145C C150A C169G U176A showed a reverse-splicing fitness of 0.0232. Work on C82A A145C C150A C169G U176C yielded a reverse-splicing fitness of 0.0122. In the case of C82A A120U A145C C169U U176G, the reverse-splicing fitness is reported as 0.00109. Work on C82A A120U A145C C169U U176A yielded a reverse-splicing fitness of 0.00271. In the case of C82A A120U A145C C169U U176C, the reverse-splicing fitness is reported as 0.00274. C82A A120U A145G C169U U176G showed a reverse-splicing fitness of 0.00139. C82A A120U A145G C169U U176C gave a reverse-splicing fitness of 0.00364.
